Publication PMC2713185
pKd: −log10 of the molar value.

Target: TMR-PDZ(C338) domain of Dvl1 (mouse) (UniProt P51141)
Test: other fluorescence titration

Chain of UniProt P51141 (P51141 251-341): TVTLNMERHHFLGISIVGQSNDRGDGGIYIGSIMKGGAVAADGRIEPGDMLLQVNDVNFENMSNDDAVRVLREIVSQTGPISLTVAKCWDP

| pKd | Substance |
| --- | --- |
| 4.15 | tripeptide VVV |
| 5.70 | tripeptide VWV |
